Test results reported in paper PMC3692409, “RIT2, a neuron-specific small guanosine triphosphatase, is expressed in retinal neuronal cells and its promoter is modulated by the POU4 transcription factors”.

T1: POU4F1-s (UniProt Q01851 85-419)
T1 sequence: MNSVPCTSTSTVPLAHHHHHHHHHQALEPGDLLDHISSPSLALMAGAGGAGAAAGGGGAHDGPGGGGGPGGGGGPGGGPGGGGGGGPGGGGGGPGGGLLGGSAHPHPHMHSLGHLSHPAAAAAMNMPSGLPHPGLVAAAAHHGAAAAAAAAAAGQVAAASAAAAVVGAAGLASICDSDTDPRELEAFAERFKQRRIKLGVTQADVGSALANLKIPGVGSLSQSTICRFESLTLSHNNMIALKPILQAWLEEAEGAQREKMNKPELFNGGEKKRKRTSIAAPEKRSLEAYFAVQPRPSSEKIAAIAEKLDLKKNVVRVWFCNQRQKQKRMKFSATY

T2: POU4F2-l (UniProt Q12837 1-409)
T2 sequence: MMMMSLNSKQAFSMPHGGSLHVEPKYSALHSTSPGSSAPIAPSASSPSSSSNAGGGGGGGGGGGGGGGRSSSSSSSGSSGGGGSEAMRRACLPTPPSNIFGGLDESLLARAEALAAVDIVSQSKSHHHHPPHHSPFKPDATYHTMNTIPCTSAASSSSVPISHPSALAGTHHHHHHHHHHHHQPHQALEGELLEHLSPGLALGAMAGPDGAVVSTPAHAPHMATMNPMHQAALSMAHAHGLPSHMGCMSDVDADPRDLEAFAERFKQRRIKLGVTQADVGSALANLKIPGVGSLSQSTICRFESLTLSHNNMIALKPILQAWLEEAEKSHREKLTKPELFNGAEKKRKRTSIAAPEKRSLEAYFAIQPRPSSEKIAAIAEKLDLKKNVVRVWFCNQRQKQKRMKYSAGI

T3: POU4F1-l (UniProt Q01851 1-419)
T3 sequence: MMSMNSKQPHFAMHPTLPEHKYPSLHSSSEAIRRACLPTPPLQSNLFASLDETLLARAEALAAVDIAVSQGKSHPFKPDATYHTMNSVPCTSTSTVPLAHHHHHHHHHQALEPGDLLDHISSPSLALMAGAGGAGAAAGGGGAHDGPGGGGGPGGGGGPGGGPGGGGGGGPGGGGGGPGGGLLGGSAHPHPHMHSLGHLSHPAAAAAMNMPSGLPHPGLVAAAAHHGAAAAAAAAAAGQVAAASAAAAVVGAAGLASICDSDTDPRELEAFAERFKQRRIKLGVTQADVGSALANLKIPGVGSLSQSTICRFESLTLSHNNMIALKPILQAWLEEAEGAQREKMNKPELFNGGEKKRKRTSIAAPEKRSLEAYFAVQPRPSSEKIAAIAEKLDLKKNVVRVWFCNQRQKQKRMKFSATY

T4: POU4F3 (UniProt Q15319 1-338)
T4 sequence: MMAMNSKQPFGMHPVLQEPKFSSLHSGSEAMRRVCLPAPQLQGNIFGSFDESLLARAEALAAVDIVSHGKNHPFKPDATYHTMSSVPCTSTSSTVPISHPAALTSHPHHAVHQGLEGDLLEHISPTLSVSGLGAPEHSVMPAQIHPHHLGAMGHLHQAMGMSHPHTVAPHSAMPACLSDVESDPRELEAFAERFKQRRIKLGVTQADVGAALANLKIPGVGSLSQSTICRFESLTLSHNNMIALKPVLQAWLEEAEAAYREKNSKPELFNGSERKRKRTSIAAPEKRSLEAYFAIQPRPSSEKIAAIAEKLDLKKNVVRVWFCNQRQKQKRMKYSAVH

T5: POU4F2-s (UniProt Q12837 98-409)
T5 sequence: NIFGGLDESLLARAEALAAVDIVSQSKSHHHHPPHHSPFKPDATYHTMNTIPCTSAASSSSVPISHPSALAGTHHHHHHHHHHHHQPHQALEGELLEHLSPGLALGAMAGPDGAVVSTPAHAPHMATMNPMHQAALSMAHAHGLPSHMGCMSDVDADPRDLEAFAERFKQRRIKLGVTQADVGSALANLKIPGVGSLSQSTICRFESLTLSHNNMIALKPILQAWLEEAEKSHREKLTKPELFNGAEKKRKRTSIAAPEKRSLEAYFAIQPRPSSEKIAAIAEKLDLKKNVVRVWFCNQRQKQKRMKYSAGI

B1: Probe 6m (dsDNA)
DNA 1: AGAAATCCTTAGGCCTTGACTTTG
DNA 2: CAAAGTCAAGGCCTAAGGATTTCT
B2: Probe 2 (Site 2) (dsDNA)
DNA 1: AGGGTTTTAATTAACTATTCAGTG
DNA 2: CACTGAATAGTTAATTAAAACCCT
B3: Probe 2m (dsDNA)
DNA 1: AGGGTTTTAAGGCCCTATTCAGTG
DNA 2: CACTGAATAGGGCCTTAAAACCCT
B4: Probe 1m (dsDNA)
DNA 1: AGCTCACGGCCTGAGTTAACAAAG
DNA 2: CTTTGTTAACTCAGGCCGTGAGCT

Legend:
[1] = molecular target: T1, POU4F1-s; assay: competition EMSA; conditions: unlabeled, vs 32P-Probe 2; strongest competitor; 10 mM Tris-Cl pH 7.9, 100 mM KCl, 5 mM MgCl2, 1 mM EDTA, 1 mM DTT, 0.5 mM PMSF, 5% glycerol, 1 ug poly(dI-dC), on ice 30 min; 5% polyacrylamide gel
[2] = molecular target: T1, POU4F1-s; assay: EMSA; 10 mM Tris-Cl pH 7.9, 100 mM KCl, 5 mM MgCl2, 1 mM EDTA, 1 mM DTT, 0.5 mM PMSF, 5% glycerol, 1 ug poly(dI-dC), on ice 30 min; 5% polyacrylamide gel; conditions: protein: ivt; label: 32P fill-in; overhangs filled in by Klenow
[3] = molecular target: T2, POU4F2-l; assay: as above; conditions: protein: ivt
[4] = molecular target: T3, POU4F1-l; assay: as above; conditions: protein: ivt
[5] = molecular target: T4, POU4F3; assay: as above; conditions: protein: ivt
[6] = molecular target: T5, POU4F2-s; assay: as above; conditions: protein: ivt
[7] = label: 32P fill-in, overhangs filled in by Klenow
[8] = overhangs filled in by Klenow when labeled

| Molecule | binding signal (relative binding strength) [1] | binding result [2] | binding result [3, 7] | binding result [4, 7] | binding result [5, 7] | binding result [6, 7] | binding result [3, 8] | binding result [5, 8] | binding result [6, 8] | binding result [4, 8] |
| --- | --- | --- | --- | --- | --- | --- | --- | --- | --- | --- |
| POU4F1 consensus site competitor | 1000 | – | – | – | – | – | – | – | – | – |
| B1 | – | no binding | no binding | no binding | no binding | no binding | – | – | – | – |
| B2 | – | – | – | – | – | – | binds | binds | binds | – |
| B3 | – | – | – | – | – | – | no binding | no binding | no binding | no binding |
| B4 | – | no binding | no binding | no binding | no binding | no binding | – | – | – | – |
